Each block holds one binder with its values, some of them ahead of it.
How the values were obtained:
[1] = target: T1, mouse PD-L1 on 293F cells (WBP315.293F.mPro1.C1) (mouse, UniProt Q9EP73 19-290); experiment: FACS on mouse PD-L1 expressing 293F cells, FITC anti-human IgG
T1 construct: whole, on cells; also called engineered mouse PD-L1 expressing cells
Description: Engineered mouse PD-L1 expressing cells (WBP315.293F.mPro1.C1) were seeded at 1×10⁵ cells/well in U-bottom 96-well plates. Serial dilutions of the different antibodies were added to the cells. Plates were incubated at 4° C. for 1 hour. After wash, FITC-labeled goat anti-human IgG (Jackson ImmunoResearch, 109-095-008) was added to each well and the plates were incubated at 4° C. for 1 hour. […] UIgG1 onto the cells was tested by flow cytometry and the mean fluorescence intensity (MFI) was analyzed by FlowJo.

[2] = target: T2, human PD-L1 on CHO-K1 cells (WBP315.CHO-K1.hPro1.C11) (human, UniProt Q9NZQ7 19-290); experiment: FACS on human PD-L1 expressing CHO-K1 cells, FITC anti-human IgG
T2 construct: whole, on cells; also called engineered human PD-L1 expressing cells
Description: (§1) Engineered human PD-L1 expressing cells (WBP315.CHO-K1.hPro1.C11) were seeded at 1×10⁵ cells/well in U-bottom 96-well plates. […] UIgG1 was added to the cells. Plates were incubated at 4° C. for 1 hour. After wash, FITC-labeled goat anti-human IgG (Jackson ImmunoResearch, 109-095-008) was added to each well and the plates were incubated at 4° C. for 1 hour. The binding of the antibodies onto the cells was tested by flow cytometry and the mean fluorescence intensity (MFI) was analyzed by FlowJo.

[3] = target: T3, cynomolgus monkey PD-L1 on 293F cells (WBP315.293F.cPro1.2A) (cynomolgus monkey, UniProt G7PSE7 19-290); experiment: FACS on cynomolgus PD-L1 expressing 293F cells, FITC anti-human IgG
T3 construct: also called cynomolgus PD-L1; cyno PD-L1
Description: as §1, with “Engineered cynomolgus monkey” for “Engineered human”, “cells (WBP315.293F.cPro1.2A)” for “cells (WBP315.CHO-K1.hPro1.C11)”

[4] = target: T4, human PD-L1 extracellular domain, his tag (W315-hPro1.ECD.his) (human, UniProt Q9NZQ7 19-238); experiment: SPR (Biacore T200), antibody captured on anti-human Fc, antigen as analyte, 25 °C
T4 construct: extracellular domain; Analyte in SPR; also called W315-hPro1.ECD.his (PD-L1); ECD of PD-L1; not shown: C-terminal his tag (6xhis)
Description: Biacore T200, Series S Sensor Chip CM5, Amine Coupling Kit, and 10×HBS-EP were purchased from GE Healthcare. The antibody was captured onto the anti-human Fc IgG (Jackson, 109-005-098) surface immobilized on CM5-biosensor chip (GE Healthcare Inc.). The assay was performed at 25° C. with HBS-EP+ buffer (GE Healthcare Inc.) as running and dilution buffer. Serially diluted PD-L1 antigen or VEGF antigen (W315-hPro1.ECD.his or W325-hPro1.his) and running buffer were injected for an association phase and followed dissociation phase detection. Regeneration of the chip surface was reached by an injection of 10 mM Glycine, pH 1.5.
The on-rate constant (ka) and off-rate constant (kd) were also measured in the mean time. Final data of each interaction was deducted from reference channel and buffer channel data.

[5] = target: T5, mouse VEGF (WBP325-mPro1, Sino Biological, 50159-MNAB) (mouse, UniProt Q00731-2 27-190); experiment: ELISA, plate coated with mouse VEGF, detection with anti-human IgG Fc-HRP
T5 construct: Bought protein
T5 sequence (looked up): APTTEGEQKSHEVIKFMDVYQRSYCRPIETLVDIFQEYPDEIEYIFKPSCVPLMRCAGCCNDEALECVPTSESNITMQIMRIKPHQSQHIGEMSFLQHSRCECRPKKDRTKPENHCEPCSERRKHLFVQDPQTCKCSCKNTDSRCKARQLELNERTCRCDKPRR

[6] = target: T1, mouse PD-L1 on 293F cells …; experiment: FACS competition on mouse PD-L1 expressing cells: antibody premixed with mouse Fc tagged murine PD-1 at 5 ug/ml, PE anti-mouse IgG; blocked ligand mouse PD-1
Description: (§2) Mouse PD-L1 expressing […] (WBP315.293F.mPro1.C1) were seeded at 1×10⁵ cells/well in 96-well U-bottom plates. […] After washing, PE-labeled anti-mouse IgG was added and incubated with cells at 4° C. for 1 hour. Cells were washed twice and MFI of the cells was measured by a flow cytometer and analyzed by FlowJo.

[7] = target: T2, human PD-L1 on CHO-K1 cells …; experiment: FACS competition on human PD-L1 expressing CHO-K1 cells: antibody premixed with mouse Fc tagged human PD-1 at 5 ug/ml, PE anti-mouse IgG; blocked ligand human PD-1
Description: as §2, with “Human” for “Mouse”, “(WBP315.CHO-K1.hPro1.C11)” for “(WBP315.293F.mPro1.C1)”, “45 minutes.” for “1 hour.”

[8] = target: T6, human PD-L1 extracellular domain, mouse Fc (PD-L1.ECD.mFc, W3153-hPro1.ECD.mFc) (human, UniProt Q9NZQ7 19-238); experiment: dual binding ELISA: plate coated with human VEGF, antibody titrated, then biotinylated PD-L1.ECD.mFc at 0.5 ug/ml
T6 construct: extracellular domain; also called WBP315-hPro1.ECD.mFc; antigen-2; not shown: mouse Fc tag at the C-terminus
T6 sequence (Q9NZQ7 19-238): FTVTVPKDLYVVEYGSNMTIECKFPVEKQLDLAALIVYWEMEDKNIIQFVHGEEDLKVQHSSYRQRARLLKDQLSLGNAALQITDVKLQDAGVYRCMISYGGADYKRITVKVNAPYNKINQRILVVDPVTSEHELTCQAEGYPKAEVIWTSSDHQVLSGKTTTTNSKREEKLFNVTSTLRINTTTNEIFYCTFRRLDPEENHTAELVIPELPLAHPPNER

T4 sequence (Q9NZQ7 19-238): as above
T1 sequence (Q9EP73 19-290): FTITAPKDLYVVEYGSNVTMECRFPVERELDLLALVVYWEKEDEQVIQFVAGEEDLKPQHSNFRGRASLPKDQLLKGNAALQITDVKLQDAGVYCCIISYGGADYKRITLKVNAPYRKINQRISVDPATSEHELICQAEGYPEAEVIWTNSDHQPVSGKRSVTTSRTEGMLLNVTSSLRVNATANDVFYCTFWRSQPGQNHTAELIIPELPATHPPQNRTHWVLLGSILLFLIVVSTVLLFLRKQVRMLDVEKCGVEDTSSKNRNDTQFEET
T2 sequence (Q9NZQ7 19-290): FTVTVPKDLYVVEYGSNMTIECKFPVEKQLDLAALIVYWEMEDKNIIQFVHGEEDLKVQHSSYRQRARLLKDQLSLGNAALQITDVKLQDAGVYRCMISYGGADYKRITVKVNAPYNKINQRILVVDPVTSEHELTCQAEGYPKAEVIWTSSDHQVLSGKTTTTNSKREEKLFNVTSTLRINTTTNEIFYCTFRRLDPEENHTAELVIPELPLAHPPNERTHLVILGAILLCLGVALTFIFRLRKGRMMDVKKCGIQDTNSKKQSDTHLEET
T3 sequence (G7PSE7 entry or part of it limits assumed): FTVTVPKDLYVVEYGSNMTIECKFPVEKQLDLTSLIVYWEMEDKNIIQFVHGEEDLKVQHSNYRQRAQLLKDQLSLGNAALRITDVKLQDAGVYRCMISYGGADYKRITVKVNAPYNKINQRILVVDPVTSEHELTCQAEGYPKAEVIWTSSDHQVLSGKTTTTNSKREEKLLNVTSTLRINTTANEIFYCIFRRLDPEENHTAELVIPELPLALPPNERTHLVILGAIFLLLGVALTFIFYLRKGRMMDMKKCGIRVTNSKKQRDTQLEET

EC50 (read off the curve) [1]: ~2 nM
EC50 (read off the curve) [2]: ~0.05 nM
EC50 (read off the curve) [3]: ~2 nM
Kd [4]: 0.16 nM
koff [4]: 0.000291 s⁻¹
kon [4]: 1.82e+06 M⁻¹ s⁻¹
binding result [5]: no binding (tested: 100 nM)
IC50 (read off the curve) [6]: ~2 nM
IC50 (read off the curve) [7]: ~0.04 nM
B1: W3156-AP3R2-1A3-z12-hIgG1 (Fc fusion)
chain: EVQLVESGGGLVQPGGSLRLSCAASGHFSNLAVNWFRQAPGKERELVAGILWSGGSTFYADSVKGRFTISRGNAENMLYLQMNSLRAEDTAVYYCNTGTNWGQGTLVTVSS
notes: VHH in hIgG1 format as tested; The construction of the hIgG1 format is not described; also called anti-PD-L1 VHH antibody; parental anti-PD-L1 antibody; not shown: human IgG1 part (hIgG1) named in the label only

binding result [8]: no binding (tested: 100 nM)
B2: WBP325-BMK3.uIgG1 (Bevacizumab) (antibody, V domains shown)
VH: EVQLVESGGGLVQPGGSLRLSCAASGYTFTNYGMNWVRQAPGKGLEWVGWINTYTGEPTYAADFKRRFTFSLDTSKSTAYLQMNSLRAEDTAVYYCAKYPHYYGSSHWYFDVWGQGTLVTVSS
VL: DIQMTQSPSSLSASVGDRVTITCSASQDISNYLNWYQQKPGKAPKVLIYFTSSLHSGVPSRFSGSGSGTDFTLTISSLQPEDFATYYCQQYSTVPWTFGQGTKVEIK
notes: also called W325-BMK3.uIgG1; W325-BMK3
